Test results as given in PMC2172197.
Read-outs that look alike come from different tables or passages of the source.

Legend:
[1] = target: pFd-protAHis (preferredoxin fused to Staphylococcal protein A, COOH-terminal hexahistidine tag); experiment: pull-down
[2] = target: pFd-protAHis (preferredoxin fused to Staphylococcal protein A, COOH-terminal hexahistidine tag); experiment: pull-down; remark: listed apart in the source

[35S]atToc159-K868R (from UniProt O81283 1-1503) (receptor)
percent less binding than wild-type atToc159 [1]: 60%

[35S]atToc159 (in vitro-translated soluble atToc159) (from UniProt O81283 1-1503) (receptor)
percent reduction of binding against GTP [1]: 20% | percent reduction of binding against GTP [2]: 20%

[35S]atToc159G (in vitro-translated G domain of atToc159) (domain or fragment)
fold higher binding than to Fd-protAHis [1]: 3 fold
